Source: patent US8178324B2, “Deracemisation of amines” (Ingenza Limited, priority 2002, dated 2012)
Positions count from the first letter of the chain named.

B1: MAO mutant: A. niger monoamine oxidase variant with serine replacing asparagine at position 336 (SEQ ID NO: 2) (protein)
chain: MTSRDGYQWTPETGLTQGVPSLGVISPPTNIEDTDKDGPWDVIVIGGGYCGLTATRDLTVAGFKTLLLEARDRIGGRSWSSNIDGYPYEMGGTWVHWHQSHVWREITRYKMHNALSPSFNFSRGVNHFQLRTNPTTSTYMTHEAEDELLRSALHKFTNVDGTNGRTVLPFPHDMFYVPEFRKYDEMSYSERIDQIRDELSLNERSSLEAFILLCSGGTLENSSFGEFLHWWAMSGYTYQGCMDCLISYKFKDGQSAFARRFWEEAAGTGRLGYVFGCPVRSVVNERDAARVTARDGREFVAKRVVCTIPLNVLSTIQFSPALSTERISAMQAGHVSMCTKVHAEVDNMDMRSWTGIAYPFNKLCYAIGDGTTPAGNTHLVCFGTDANHIQPDEDVRETLKAVGQLAPGTFGVKRLVFHNWVKDEFAKGAWFFSRPGMVSECLQGLREKHGGVVFANSDWALGWRSFIDGAIEEGTRAARVVLEELGTKREVKARL
modifications: Variant monoamine oxidase enzyme generated by direct evolution
B2: MAO WT: wild-type Aspergillus niger monoamine oxidase (SEQ ID NO:1) expressed in E. coli BL21(DE3) (protein)
chain: B1 chain with S336N
modifications: Aspergillus niger

Experiments:
Format in all cases: biochemical
[1] = Specific activity of the purified MAO mutant active fraction against amylamine; settings: active fraction after QSepharose, protein 1 mg·ml^−1
Protocol: LB medium (6×300 ml) containing ampicillin (100 μg·ml^−1) in 1 L baffled flasks was inoculated with a single colony of monoamine oxidase mutant from an LB agar plate. Cultures were incubated at 30° C. for 22 hours (OD600˜3.6) then harvested and washed with phosphate buffer (50 mM, pH 8) to yield a yellow-brown pellet (11.2 g).
The pellet was resuspended in Tris/HCl buffer (25 mM, pH 7.8, 30 ml) and sonicated on ice (30 s on, 30 s off for 10 minutes). The suspension was then centrifuged (20,000 rpm, 4° C.) until clear supernatant was obtained and the supernatant dialysed against Tris/HCl buffer (25 mM, pH 7.8). The cell free extract was filtered through 0.45 μm sterile membrane and chromatographed on a QSepharose anion exchange column. Fractions were assayed using colorimetric hydrogen peroxide based assay and active fractions were stored at −80° C. The active fraction has a protein content of 1 mg·ml^−1, and a specific activity of 0.193 U·mg^−1 against amylamine. […]
The spectrophotometer was blanked against assay mixture and HRP. Enzyme was added and the absorbance at 500 nm measured at 3 s intervals for a 10 minute period.

[2] = Specific activities of partially purified MAO WT and MAOArg259/260 towards amylamine
Protocol: MAO WT and MAOArg259/260 were partially purified from recombinant E. coli BL21(DE3) harbouring a pET16b carrying the corresponding mao-n gene. Cell free extracts were prepared by sonication and the specific activities of MAO WT and MAOArg259/260 towards AA were measured for both the soluble and insoluble fractions. (Table 3)

[3] = Cell free extracts assayed towards L-AMBA; settings: 240 minutes
Protocol: To 895 ul Assay Mixture was Added: • 5 μl HRP (Sigma, P6782) (1 mg/ml)
Sample (100 μl) was added and absorbance at 510 nm measured after 24 hours against a control without sample.
This was achieved by incubating 50 μl of each sample for 240 minutes and specific activities were determined. (Table 4)

Row | Molecule | specific activity against amylamine [1] [U·mg^−1] | Total activity [2] [U] | Insoluble fraction specific activity ([2]; insoluble fraction) [U · mg^−1] | Soluble fraction specific activity ([2]; soluble fraction) [U · mg^−1] | ΔAbs 510 nm ([3]; 50 μl sample) | Soluble fraction specific activity [3]
1 | B1 | 0.193 |  |  |  |  | 
2 | B2 |  | 0.57 | 0.33 | 0.23 | 0.06 | 3.6 × 10^−5 U · mg^−1
